{"source": "patent US20250313644A1", "key": {"[1]": {"biological_target": "human TL1A (HuTL1A) (human) (UniProt O95150)", "sequence (O95150 57-251 limits assumed)": "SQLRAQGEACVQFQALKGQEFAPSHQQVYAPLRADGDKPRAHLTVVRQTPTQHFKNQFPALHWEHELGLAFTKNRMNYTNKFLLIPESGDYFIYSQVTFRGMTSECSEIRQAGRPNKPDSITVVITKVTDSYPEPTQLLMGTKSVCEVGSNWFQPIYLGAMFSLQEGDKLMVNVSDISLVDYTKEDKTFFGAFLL"}, "[2]": {"biological_target": "human TL1A (HuTL1A) (human) (UniProt O95150)", "remark": "listed apart in the source"}, "FASL [3]": {"biological_target": "FASL (UniProt P48023)", "sequence (P48023 134-281 limits assumed)": "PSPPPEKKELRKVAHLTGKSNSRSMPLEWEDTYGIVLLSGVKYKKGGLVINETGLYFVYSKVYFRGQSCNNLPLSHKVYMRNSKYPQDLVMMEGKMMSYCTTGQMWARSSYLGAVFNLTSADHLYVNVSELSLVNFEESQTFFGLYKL", "experiment": "ELISA, coated FASL, Ab 25 nM"}, "LT-α [4]": {"biological_target": "T1, LT-α (UniProt P01374)", "T1 sequence (looked up)": "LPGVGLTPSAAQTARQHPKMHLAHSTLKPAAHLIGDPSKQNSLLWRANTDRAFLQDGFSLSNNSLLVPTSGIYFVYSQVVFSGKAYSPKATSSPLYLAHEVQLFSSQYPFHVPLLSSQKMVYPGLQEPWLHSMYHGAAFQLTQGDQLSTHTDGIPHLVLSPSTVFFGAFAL", "experiment": "ELISA, coated LT-α, Ab 25 nM"}, "FASL [5]": {"biological_target": "FASL (UniProt P48023)", "experiment": "ELISA, coated FASL, Ab 100 nM"}, "LIGHT [6]": {"biological_target": "LIGHT (UniProt O43557)", "sequence (O43557 74-240 limits assumed)": "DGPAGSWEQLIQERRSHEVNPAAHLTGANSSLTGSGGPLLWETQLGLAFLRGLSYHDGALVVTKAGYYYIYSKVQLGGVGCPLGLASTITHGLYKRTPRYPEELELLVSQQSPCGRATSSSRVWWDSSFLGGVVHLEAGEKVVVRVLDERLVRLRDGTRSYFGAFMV", "experiment": "ELISA, coated LIGHT, Ab 25 nM"}, "LT-α [7]": {"biological_target": "T1, LT-α", "experiment": "ELISA, coated LT-α, Ab 100 nM"}, "TNFα [8]": {"biological_target": "TNFα (UniProt P01375)", "sequence (P01375 77-233 limits assumed)": "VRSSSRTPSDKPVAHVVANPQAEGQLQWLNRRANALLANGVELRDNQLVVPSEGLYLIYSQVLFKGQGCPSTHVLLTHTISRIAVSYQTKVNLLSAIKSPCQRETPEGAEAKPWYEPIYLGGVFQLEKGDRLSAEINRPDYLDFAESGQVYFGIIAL", "experiment": "ELISA, coated TNF-α, Ab 25 nM"}, "FASL [9]": {"biological_target": "FASL (UniProt P48023)", "experiment": "ELISA, coated FASL, Ab 6.25 nM"}, "LIGHT [10]": {"biological_target": "LIGHT (UniProt O43557)", "experiment": "ELISA, coated LIGHT, Ab 100 nM"}, "LT-α [11]": {"biological_target": "T1, LT-α", "experiment": "ELISA, coated LT-α, Ab 6.25 nM"}, "TNFα [12]": {"biological_target": "TNFα (UniProt P01375)", "experiment": "ELISA, coated TNF-α, Ab 100 nM"}, "FASL [13]": {"biological_target": "FASL (UniProt P48023)", "experiment": "ELISA, coated FASL, Ab 0.391 nM"}, "FASL [14]": {"biological_target": "FASL (UniProt P48023)", "experiment": "ELISA, coated FASL, Ab 1.563 nM"}, "LIGHT [15]": {"biological_target": "LIGHT (UniProt O43557)", "experiment": "ELISA, coated LIGHT, Ab 6.25 nM"}, "LT-α [16]": {"biological_target": "T1, LT-α", "experiment": "ELISA, coated LT-α, Ab 0.391 nM"}, "LT-α [17]": {"biological_target": "T1, LT-α", "experiment": "ELISA, coated LT-α, Ab 1.563 nM"}, "TNFα [18]": {"biological_target": "TNFα (UniProt P01375)", "experiment": "ELISA, coated TNF-α, Ab 6.25 nM"}, "LIGHT [19]": {"biological_target": "LIGHT (UniProt O43557)", "experiment": "ELISA, coated LIGHT, Ab 0.391 nM"}, "LIGHT [20]": {"biological_target": "LIGHT (UniProt O43557)", "experiment": "ELISA, coated LIGHT, Ab 1.563 nM"}, "TNFα [21]": {"biological_target": "TNFα (UniProt P01375)", "experiment": "ELISA, coated TNF-α, Ab 0.391 nM"}, "TNFα [22]": {"biological_target": "TNFα (UniProt P01375)", "experiment": "ELISA, coated TNF-α, Ab 1.563 nM"}, "FASL [23]": {"biological_target": "FASL (UniProt P48023)", "experiment": "ELISA, coated FASL, Ab 0.000 nM (blank)"}, "LT-α [24]": {"biological_target": "T1, LT-α", "experiment": "ELISA, coated LT-α, Ab 0.000 nM (blank)"}, "LIGHT [25]": {"biological_target": "LIGHT (UniProt O43557)", "experiment": "ELISA, coated LIGHT, Ab 0.000 nM (blank)"}, "TNFα [26]": {"biological_target": "TNFα (UniProt P01375)", "experiment": "ELISA, coated TNF-α, Ab 0.000 nM (blank)"}, "[27]": {"biological_target": "human TL1A (HuTL1A) (human) (UniProt O95150)", "experiment": "DLS, antigen and antibody mixed in equal moles"}, "[28]": {"biological_target": "human TL1A (HuTL1A) (human) (UniProt O95150)", "experiment": "ELISA: biotin-HuTL1A on streptavidin plate, antibody diluted at pH 5.8, HRP-anti-human Fc, OD450"}, "[29]": {"biological_target": "human TL1A (HuTL1A) (human) (UniProt O95150)", "experiment": "ELISA: biotin-HuTL1A on streptavidin plate, antibody diluted at pH 7.4, HRP-anti-human Fc, OD450"}, "[30]": {"biological_target": "human TL1A (HuTL1A) (human) (UniProt O95150)", "experiment": "competition ELISA: antibody dilution mixed 1:1 with Biotin-TL1A, added to coated DcR3 (1 µg/mL), Streptavidin-HRP, OD450; blocked partner of TL1A: DcR3"}}}
{"substance": "BM1 antibody (Pfizer/Roivant TL1A monoclonal antibody RVT-3101)", "values": [{"measurement": "IC50 (read off the curve); SEAP reporter in HEK293T/DR3-NFκB cells with soluble TL1A, OD655", "setting": "[1]", "value": 2, "unit": "nM"}, {"measurement": "IC50 (read off the curve); IFN-γ of human T cells with IL-12, IL-18 and exogenous human TL1A", "setting": "[2]", "value": 0.5, "unit": "nM"}, {"measurement": "OD450 nm", "setting": "FASL [3]", "value": 0.0609}, {"measurement": "OD450 nm", "setting": "LT-α [4]", "value": 0.0845}, {"measurement": "OD450 nm", "setting": "FASL [5]", "value": 0.0855}, {"measurement": "OD450 nm", "setting": "LIGHT [6]", "value": 0.0916}, {"measurement": "OD450 nm", "setting": "LT-α [7]", "value": 0.0823}, {"measurement": "OD450 nm", "setting": "TNFα [8]", "value": 0.0601}, {"measurement": "OD450 nm", "setting": "FASL [9]", "value": 0.0513}, {"measurement": "OD450 nm", "setting": "LIGHT [10]", "value": 0.0996}, {"measurement": "OD450 nm", "setting": "LT-α [11]", "value": 0.0909}, {"measurement": "OD450 nm", "setting": "TNFα [12]", "value": 0.0815}, {"measurement": "OD450 nm", "setting": "FASL [13]", "value": 0.051}, {"measurement": "OD450 nm", "setting": "FASL [14]", "value": 0.0518}, {"measurement": "OD450 nm", "setting": "LIGHT [15]", "value": 0.0903}, {"measurement": "OD450 nm", "setting": "LT-α [16]", "value": 0.0978}, {"measurement": "OD450 nm", "setting": "LT-α [17]", "value": 0.095}, {"measurement": "OD450 nm", "setting": "TNFα [18]", "value": 0.0511}, {"measurement": "OD450 nm", "setting": "LIGHT [19]", "value": 0.0834}, {"measurement": "OD450 nm", "setting": "LIGHT [20]", "value": 0.0887}, {"measurement": "OD450 nm", "setting": "TNFα [21]", "value": 0.0539}, {"measurement": "OD450 nm", "setting": "TNFα [22]", "value": 0.0523}, {"measurement": "OD450 nm", "setting": "FASL [23]", "value": 0.0544}, {"measurement": "OD450 nm", "setting": "LT-α [24]", "value": 0.0972}, {"measurement": "OD450 nm", "setting": "LIGHT [25]", "value": 0.0644}, {"measurement": "OD450 nm", "setting": "TNFα [26]", "value": 0.0666}, {"measurement": "Ave Z-dia (nm) of the antigen-antibody complex", "setting": "[27]", "value": 85.7, "unit": "nm"}, {"measurement": "EC50 (read off the curve)", "setting": "[28]", "value": 0.1, "unit": "nM"}, {"measurement": "EC50 (read off the curve)", "setting": "[29]", "value": 0.1, "unit": "nM"}, {"measurement": "IC50 (read off the curve)", "setting": "[30]", "value": 0.2, "unit": "µg/mL"}]}
